Data published in patent US20260139013A1 (VIB VZW, published 2026).

Molecular target: the molecule itself
Assay: cryo-EM structure of the self-assembled fiber (subunit to subunit)

B1: Ena1B-HI-Rubredoxin (other)
chain: MGNCSTNLSCCANGQKTIVQDKVCIDWTAAATAAIIYADNISQDIYASGYLKVDTGTGPVTIVFYSGGVTGTAVETIVVATGSSASFTVRRFDTVTILGGGKYVCTVCGYEYDPAEGDPDNGVKPGTSFDDLPADWVCPVCGAPKSEFEAAGAAETGEFCMTIRYTLS
notes: It was made in E. coli and studied as a self-assembled helical fiber of many identical subunits; The rubredoxin centre carried mostly zinc and some iron; also called Ena-HI-Rubredoxin; Ena1B-Rubredoxin-HI
B1: binds.
